This assay has as its target HLA-A2.1 (HLA-A*0201) on the surface of T2 cells (human).

B1: Influenza B nucleoprotein peptide (aa 85-94; Flu), P04665 85-94 (peptide)
peptide: KLGEFYNQMM
modifications: not checked
For the molecule B1, the Median Channel of Fluorescence of HLA-A2 Expression on T2 came to 194.
